Data reported in patent publication US20060288448.

How the values were obtained:
[1] = molecular target: T1, Angiogenin peptide (Bachem), P03950 (not fully specified)
T1 chain: ENGLPVHLDQSIFRR

β-casein, P02666 = molecular target: T2, β-casein, P02666
T2 chain: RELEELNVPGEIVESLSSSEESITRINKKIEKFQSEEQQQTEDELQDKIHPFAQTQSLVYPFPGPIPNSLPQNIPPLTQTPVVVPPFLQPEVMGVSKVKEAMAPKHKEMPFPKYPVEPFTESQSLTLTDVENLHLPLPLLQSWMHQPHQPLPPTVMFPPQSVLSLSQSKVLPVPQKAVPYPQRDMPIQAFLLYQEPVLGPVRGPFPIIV

Chain of κ-casein, P02668 (P02668 22-190): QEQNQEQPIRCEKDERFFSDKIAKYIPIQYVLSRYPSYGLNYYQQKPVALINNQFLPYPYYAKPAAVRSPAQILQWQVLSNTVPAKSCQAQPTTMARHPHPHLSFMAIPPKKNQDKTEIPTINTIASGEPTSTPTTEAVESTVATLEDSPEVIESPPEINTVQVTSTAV

| Protein | proteolytic digestion for 30 or 60 min (LC-MS, N-terminal sequencing) [1] | proteolytic digestion, cleavage site mapping (κ-casein, P02668) | proteolytic digestion time course (SDS-PAGE, N-terminal sequencing) (β-casein, P02666) |
| --- | --- | --- | --- |
| iwm2s.pk015.c9 cathepsin L-like protease of western corn rootworm midgut (protein) MKLLILAATLIVAINANLSAFEQWTSFKATHNKFYNVIEDKLRFAVFQENLRKIDAHNAKYEKGEETYYMAVNKFADWSSAEFQAMLDRQMANKPKQSFIAKHVVDPNVQAVEEVDWRESAVLGVKDQGQCGSCWAFSTTGSLEGQLAIHKNQRVPLSEQELVDCDKVNDGCDGGLMTDAFFYIEHHGLSSEEQYPYTGVDGHCNHVKDKQVSSISGYVELDETESALADALANVGPVSIAVEADTWQFYSGGVFNNKNCGDALNHGVLAVGYTKDVFIVKNSWGTGWGEQGYIRVARGSNLCGINLMNSYPKL | after 30 min two distinct pairs of cleavage products were detected that corresponded to cleavage immediately N-terminal to Leu8 or to Gln10 | κ-casein was also digested with c9 and h10 ... major detectable cleavage sites were observed after Ser54, Asp62, Serl25, and Met127 | The time course of β-casein digestion by c9 showed a major ˜19 kD digestion product (indicated by black arrowhead) by 2 minutes after addition of enzyme |
| iwm2s.pk017.h10 cathepsin L-like protease of western corn rootworm midgut (protein) MKLFILAAALIVATSANLGAFEKWTSFKATHNKSYNVIEDKLRFAVFQDNLKKIEEHNAKYESGEETYYLAVNKFADWSSAEFQAMLARQMANKPKQSFIAKHVADPNVQAVEEVDWRDSAVLGVKDQGQCGSCWAFSTTGSLEGQLAIHKNQRVPLSEQELVDCDTSRNAGCNGGLMTDAFNYVKRHGLSSESQYAYTGRDDRCKNVENKPLSSISGYVELETTEDALASAVASVGPVSIAVDADTWQLYGGGLFNNKNCRTNLNHGVLAVGYTKDAFIVKNSWGTSWGEQGYIRVARGENLCGINLMNSYPKL |  | κ-casein was also digested with c9 and h10 ... major detectable cleavage sites were observed after Ser54, Asp62, Serl25, and Met127 |  |
